# Data: patent US20230416382A1 (Five Prime, published 2023)
# “And” between values parts separate entries of the source, which are not always exact repeats. Equal entries are not always repeated.
# T1: human CX3CR1 (human, UniProt P49238 1-355)
# T1 construct: whole, on cells; also called hCX3CR1; huCX3CR1
# T1 sequence (looked up): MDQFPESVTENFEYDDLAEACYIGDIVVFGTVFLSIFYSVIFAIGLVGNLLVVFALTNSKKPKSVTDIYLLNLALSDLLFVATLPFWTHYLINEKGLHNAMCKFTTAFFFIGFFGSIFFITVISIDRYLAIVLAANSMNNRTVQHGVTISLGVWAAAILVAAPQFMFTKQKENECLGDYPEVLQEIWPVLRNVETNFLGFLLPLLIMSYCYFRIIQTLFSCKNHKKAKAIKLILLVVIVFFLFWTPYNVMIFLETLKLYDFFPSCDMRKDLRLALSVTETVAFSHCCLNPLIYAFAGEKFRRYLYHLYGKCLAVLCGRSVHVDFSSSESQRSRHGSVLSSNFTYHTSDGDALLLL
# T2: human CCR4 (human, UniProt P51679 1-360)
# T2 construct: whole, on cells; also called hCCR4; huCCR4
# T2 sequence (looked up): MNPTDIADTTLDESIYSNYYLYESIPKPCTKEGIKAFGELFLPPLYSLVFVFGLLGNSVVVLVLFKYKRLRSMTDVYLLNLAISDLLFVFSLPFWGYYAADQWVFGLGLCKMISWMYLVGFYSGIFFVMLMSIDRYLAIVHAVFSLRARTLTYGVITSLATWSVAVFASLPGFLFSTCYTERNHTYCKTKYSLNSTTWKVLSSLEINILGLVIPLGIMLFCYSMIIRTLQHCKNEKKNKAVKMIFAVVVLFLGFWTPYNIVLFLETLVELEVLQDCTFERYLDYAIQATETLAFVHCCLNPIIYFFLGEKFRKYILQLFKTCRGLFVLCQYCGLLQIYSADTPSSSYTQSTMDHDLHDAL
# T3: mCCR8
# T3 construct: also called murine CCR8; mouse CCR8
# T3 receptor: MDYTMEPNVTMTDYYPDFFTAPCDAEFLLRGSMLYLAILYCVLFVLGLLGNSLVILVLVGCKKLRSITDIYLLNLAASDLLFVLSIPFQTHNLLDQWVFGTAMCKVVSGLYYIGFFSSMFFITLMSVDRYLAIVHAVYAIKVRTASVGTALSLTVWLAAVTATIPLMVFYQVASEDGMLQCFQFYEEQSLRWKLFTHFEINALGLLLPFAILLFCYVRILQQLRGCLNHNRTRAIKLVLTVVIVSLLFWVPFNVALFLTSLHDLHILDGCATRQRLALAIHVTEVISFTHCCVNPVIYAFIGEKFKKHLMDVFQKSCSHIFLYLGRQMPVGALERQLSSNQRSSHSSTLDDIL
# Assays:
# human CCR8 [1] = target: T4, human CCR8 (human, UniProt P51685 1-355); test: flow cytometry on HEK293 cells expressing human CCR8, anti-hIgG BV421 secondary
# T4 construct: also called hCCR8; huCCR8
# Description: (§1) To determine the binding potency of anti-CCR8 antibodies, a flow based binding study was performed. HEK293 were transfected using expression vectors containing human CCR8 (hCCR8), cynomolgus CCR8 (cyCCR8) or murine CCR8 (mCCR8). Anti-CCR8 antibodies were tittered in the presence of hCCR8_293 (FIG. 8A), cyCCR8_293 cells (FIG. 8B) or mCCR8_293 cells (FIG. 8C). The cells were subsequently stained with an anti-hIgG secondary antibody conjugated to Brilliant Violet 421 (Biolegend) to visualize bound anti-CCR8 antibodies. The geometric mean fluorescence intensity of each sample was used to determine the binding EC50 of each antibody with Prism v.8 (Table 4; Graphpad).
# cynomolgus CCR8 [2] = target: T5, cynomolgus CCR8 (Macaca fascicularis (cynomolgus), UniProt O97665 1-356 (rhesus entry)); test: flow cytometry on HEK293 cells expressing cynomolgus CCR8, anti-hIgG BV421 secondary
# T5 construct: On transfected HEK293 cells (cyCCR8_293); also called cyCCR8; Cyno CCR8
# Description: as §1
# human CX3CR1 [3] = target: T1, human CX3CR1; test: flow cytometry at 10 ug/ml on dye-barcoded mixed 293 lines, anti-hIgG BV421 secondary
# Source text: (§2) To assess antibody binding selectivity, the cell lines were first labelled with unique combinations of fluorescent dyes to permit antibody staining of all cell lines in a single tube. hCCR8_293 cells were labeled with Cell Trace Far Red (Invitrogen). hCCR4_293 cells were labeled with carboxyfluorescein succinimidyl ester (Invitrogen). hCX3CR1_293 cells were labeled with both Cell Trace Far Red and carboxyfluorescein succinimidyl ester. Parental 293 cells were not labeled with dye. Anti-CCR8 antibodies were prepared at a concentration of 10 ug/ml and incubated with labeled hCCR8_293, hCCR4_293, hCX3CR1_293 or parental 293 cells that were pre-mixed at an equivalent ratio. The cells were washed and then subsequently stained with an anti-hIgG secondary antibody conjugated to Brilliant Violet 421 (Biolegend) to visualize bound antibodies. To determine the selectivity of binding, the individual cell lines were first identified in each sample and the geometric median fluorescence intensity of the secondary antibody was obtained for each population (FIG. 9B). […]
# human CCR4 [4] = target: T2, human CCR4; test: as above
# Source text: as §2
# human CCR8 [5] = target: T4, human CCR8; test: cell-based or functional assay
# human CCR8 [6] = target: T4, human CCR8; test: cell-based or functional assay; remark: listed apart in the source
# mCCR8 = target: T3, mCCR8; test: flow cytometry titration on mCCR8_293 (HEK293) cells, anti-hIgG BV421 secondary
# Description: as §1
# human CX3CR1 [7] = target: T1, human CX3CR1; test: flow cytometry on mixed dye-labelled HEK293 transfectants, signal compared with parental 293
# Source text: as §2
# human CCR4 [8] = target: T2, human CCR4; test: as above
# Source text: as §2
# cynomolgus CCR8 [9] = target: T5, cynomolgus CCR8; test: flow cytometry titration on cyCCR8_293 (HEK293) cells, anti-hIgG BV421 secondary
# Description: as §1
# T4 sequence (P51685 whole entry): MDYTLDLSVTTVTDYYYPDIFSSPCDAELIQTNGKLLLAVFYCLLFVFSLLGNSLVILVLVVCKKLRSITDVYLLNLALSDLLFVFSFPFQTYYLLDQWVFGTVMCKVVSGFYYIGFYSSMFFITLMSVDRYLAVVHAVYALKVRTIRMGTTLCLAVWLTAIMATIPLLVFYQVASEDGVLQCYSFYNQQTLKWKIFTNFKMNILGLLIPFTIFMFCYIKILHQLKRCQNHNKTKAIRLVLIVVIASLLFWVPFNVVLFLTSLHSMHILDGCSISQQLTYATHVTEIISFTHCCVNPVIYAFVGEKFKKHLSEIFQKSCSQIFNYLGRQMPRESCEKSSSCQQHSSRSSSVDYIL
# T5 sequence (O97665 other isoform, or with tags, fused parts or gaps): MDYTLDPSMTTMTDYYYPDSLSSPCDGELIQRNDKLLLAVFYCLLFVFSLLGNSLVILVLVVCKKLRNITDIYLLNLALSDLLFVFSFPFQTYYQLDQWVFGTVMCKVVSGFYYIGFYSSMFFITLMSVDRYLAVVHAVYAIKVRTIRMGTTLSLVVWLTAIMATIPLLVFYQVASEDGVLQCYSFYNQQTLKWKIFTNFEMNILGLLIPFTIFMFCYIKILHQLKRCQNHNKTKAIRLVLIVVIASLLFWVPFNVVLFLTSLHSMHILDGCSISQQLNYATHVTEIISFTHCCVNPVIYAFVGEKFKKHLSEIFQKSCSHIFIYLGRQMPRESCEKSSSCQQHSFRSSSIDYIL
Binder,EC50 (human CCR8 [1]),EC50 (cynomolgus CCR8 [2]),binding result (human CX3CR1 [3]),binding result (human CCR4 [4]),"NK Killing EC50 (primary human NK cells, TALL1 target cells) (human CCR8 [5])","FcR reporter activation EC50 (Hut78 target cells, Jurkat FcγRIIIa NFAT-luciferase) (human CCR8 [6])",binding result (mCCR8),binding result (human CX3CR1 [7]),binding result (human CCR4 [8]),EC50 (read off the curve) (cynomolgus CCR8 [9]) [µg/mL]
"I2676 (antibody, V domains shown, also called anti-CCR8 antibody clone I2676) VH: QVQLVESGGGVVQPGRSLRLSCAASGFTFSSYAMHWVRQAPGKGLEWVAVISYDGSNKYYADSVKGRFTISRDNSKNTLYLQMNSLRAEDTAVYYCARVRDRAFDIWGQGTMVTVSS VL: QAVLTQPASLSASPGASASLTCTLRSGINVGTYRIYWYQQKPGSPPQYLLRYKSDSDKQQGSGVPSRFSGSKDASANAGILLISGLQSEDEADYYCMIWHSSARNWVFGGGTKLTVL",0.18 µg/mL and 1.2 nM,0.3 µg/mL and 2 nM,no binding (tested: 10 ug/ml),no binding (tested: 10 ug/ml),0.000856 µg/mL and 6 pM,0.00592 µg/mL and 39.4 pM,no binding (tested: about 30 ug/ml (log 1.5)),–,–,–
"I3210 (antibody, V domains shown, also called anti-CCR8 antibody clone I3210) VH: QVQLVESGGGVVQPGRSLRLSCAASGFTFSSYAMHWVRQAPGKGLEWVAVISYDGSNKYYADSVKGRFTISRDNSKNTLYLQMNSLRAEDTAVYYCARVRDRAFDIWGQGTMVTVSS VL: QAVLTQPASLSASPGASASLTCTLRSGINVGTYRIYWYQQKPGSPPQYLLRIIKSGSSDKQQGSGVPSRFSGSKDASANAGILLISGLQSEDEADYYCMIWHSSARNWVFGGGTKLTVLG",0.2 µg/mL and 1.3 nM,–,–,–,0.00065 µg/mL and 4.5 pM,32.1 pM and 0.00482 µg/mL,–,–,–,–
"I3213 (antibody, V domains shown, also called anti-CCR8 antibody clone I3213) VH: QVQLVESGGGVVQPGRSLRLSCAASGFTFSSYAMHWVRQAPGKGLEWVAVISYDGSNKYYADSVKGRFTISRDNSKNTLYLQMNSLRAEDTAVYYCARVRDRAFDIWGQGTMVTVSS VL: QAVLTQPASLSASPGASASLTCTLRSGINLGTYRIYWYQQKPGSPPQYLLRYKSDSDKQQGSGVPSRFSGSKDASANAGILLISGLQSEDEADYYCMIWHSSARNWVFGGGTKLTVLG",0.16 µg/mL and 1.1 nM,–,–,–,0.000602 µg/mL and 4.2 pM,0.00455 µg/mL and 30.4 pM,–,–,–,–
"I2677 (antibody, V domains shown, also called anti-CCR8 antibody clone I2677) VH: not shown VL: QAVLTQPASLSASPGASASLTCTLRSGINVGTYRIYWYQQKPGSPPQYLLRYKSDSDKQQGSGVPSRFSGSKDASANAGILLISGLQSEDEADYYCMIWHSSARNWVFGGGTQLTVL",0.13 µg/mL and 0.9 nM,9.6 µg/mL and 64 nM,–,–,–,0.116 µg/mL and 772 pM,–,no binding (tested: 10 ug/ml),no binding (tested: 10 ug/ml),–
"I3144 (antibody, V domains shown, also called anti-CCR8 antibody clone I3144) VH: QVQLVESGGGVVQPGRSLRLSCAASGFTFSSYAMHWVRQAPGKGLEWVAVISYDGSNKYYADSVKGRFTISRDNSKNTLYLQMNSLRAEDTAVYYCARVRDRAFDIWGQGTMVTVSS VL: QAVLTQPASLSASPGASASLTCTLRSGINVGTYRIYWYQQKPGSPPQYLLRYKSDSDKQQGSGVPSRFSGSKDASANAGILLISGLQSEDEADYYCMIWHSSARNWVFGGGTKLTVL",4.6 nM and 0.69 µg/mL,–,no binding (tested: 10 ug/ml),no binding (tested: 10 ug/ml),–,0.0091 µg/mL and 60.8 pM,–,–,–,~1
"I3145 (antibody, V domains shown, also called anti-CCR8 antibody clone I3145) VH: EVQLVETGGGLIQPGGSLRLSCAASGFTVSSNYMSWVRQAPGKGLEWVSVIYSGGSTYYADSVKGRFTISRDNSKNTLYLQMNSLRAEDTAVYYCARGLGSADYWGQGTLVTVSS VL: DVVMTQSPLSLPVTLGQPASISCRSSQSLLHSNGNTYLNWFQQRPGQSPRRLIYKVSIRDSGVPDRFSGSGSGTDFTLKISRVEAEDVGLYYCMQSTQWPITFGGGTKLEIK",2.43 µg/mL and 16.2 nM,–,no binding (tested: 10 ug/ml),no binding (tested: 10 ug/ml),–,0.569 µg/mL and 3790 pM,–,–,–,–
